{"source": "patent US7655453B2", "about": "“Recombinant Candida rugosa lipases” (Academia Sinica, priority 2001, dated 2010)", "substrate": "CCCCC/C=C\\C/C=C\\CCCCCCCC(=O)O[C@H]1CC[C@@]2(C)C(=CC[C@H]3[C@@H]4CC[C@H]([C@H](C)CCCC(C)C)[C@@]4(C)CC[C@@H]32)C1", "experiment": "purified protein, by the assay type", "type": "biochemical, Candida rugosa", "settings": "other: 37° C., pH 7.0, Trx-LIP4 29 nM, average of three independent experiments", "source_text": "Construction of expression vectors The E. coli expression vectors pET23a-LIP4-S19 and pET23a-trx-LIP4-S19 were constructed as described in Tang et al. (2000) Protein Exp. Purif. 20: 308-313. Open-reading frames of LIP1, LIP2, LIP3, and LIP5 without the leader sequence were obtained by reverse transcription-polymerase chain reaction (RT-PCR). See Longhi et al. (1992) Biochim. Biophy. […] The chimeric DNA sequences were constructed by replacing the SphI(184)-BstXI(304) restriction DNA fragment of LIP4 with the corresponding fragments of LIP1, LIP2, LIP3, or LIP5, respectively. The resulting sequences encode mature chimeric C. rugosa lipases, denoted as TrX-LIP4/lid1, TrX-LIP4/lid2, TrX-LIP4/lid3, and TrX-LIP4/lid5, and were confirmed by DNA sequencing.\nPreparation of recombinant LIP4 from E. coli. E. coli strain AD494(DE3) (Novagen, Milwaukee, Wis.) harboring recombinant plasmid was grown overnight at 37° C. in Luria-Bertani (LB) broth supplemented with 50 μg/mL ampicillin and 15 μg/mL kanamycin. The cells were then diluted 20-fold into fresh medium and incubated with shaking at 25° C. After adding IPTG to give a final concentration of 0.05 mM, the cells were incubated at 10° C. until OD600 reached 1.0.\nPurification of recombinant LIP4. After induction, the AD494(DE3) transformants were harvested by centrifugation at 4000 g and 4° C. for 10 min. The cell pellet was resuspended in TE buffer (20 mM Tris-HCl and 2.5 mM EDTA, pH 8.0). The cells were disrupted with a sonicator, and the soluble fractions of the cell lysates were then collected by centrifugation at 15,000 g at 4° C. for 30 min. The soluble fractions were concentrated by ultrafiltration on a 10,000 molecular weight cut-off membrane. These samples were then applied onto a DEAE-Sepharose CL-6B (Pharmacia Biotech) column equilibrated with TE buffer. Recombinant lipases were eluted using a linear gradient of 0 to 100 mM (NH4)2SO4 over 5 column volumes.\nThe eluted proteins were then applied to a Butyl-Sepharose 4 Fast Flow (Pharmacia Biotech) hydrophobic interaction column. The column was washed with 5 bed volumes of TE buffer plus 1 mM and then 4 mM CHAPS. Bound proteins were then eluted with 5 bed volumes of TE buffer containing 30 mM CHAPS. The eluted samples were dialyzed against TE buffer and stored in a storage buffer (60 mM KCl, 10 mM Tris-HCl, 1.25 mM EDTA, 1% Triton X-100, and 17% glycerol, pH 7.5) at −20° C. Protein concentrations in the fractions were measured with the Bio-Rad assay kit, and esterase activity was determined using p-nitrophenyl butyrate as a substrate. The molecular masses of the purified recombinant lipases and a commercial lipase (Lipase Type VII, Sigma L1754) were determined by SDS-PAGE analysis. […]"}
{"protein": "Candida rugosa lipase 4 (LIP4), recombinant, E. coli thioredoxin fused to the N-terminal (Trx-LIP4) (Diutina rugosa) (protein) SMNSRGPAGRLGSVPTATLANGDTITGLNAIINEAFLGIPFAQPPVGNLRFKPPVPYSASLNGQKFTSYGPSCMQMNPLGNWDSSLPKAAINSLMQSKLFQAVLPNGEDCLTINVVRPSGTKPGANLPVMVWIFGGGFEVGGSSLFPPAQMITASVLMGKPIIHVSMNYRVASWGFLAGPDIKAEGSGNAGLHDQRLGLQWVADNIAGFGGDPSKVTIFGESAGSMSVMCQLLWNDGDNTYNGKPLFRAAIMQSGAMVPSDPVDGPYGTQIYDQVVASAGCGSASDKLACLRSISNDKLFQATSDTPGALAYPSLRLSFLPRPDGTFITDDMFKLVRDGKCANVPVIIGDQNDEGTVFALSSLNVTTDAQARQYFKESFIHASDAEIDTLMAAYPSDITQGSPFDTGIFNAITPQFKRIAAVLGDLAFTLPRRYFLNHFQGGTKYSFLSKQLSGLPVIGTHHANDIVWQDFLVSHSSAVYNNAFIAFANDLDPNKAGLLVNWPKYTSSSQSGNNLLQINALGLYTGKDNFRTAGYDALFTNPSSFFV", "values": [{"measurement": "Km", "value": "104 ± 10 10^−3 mM"}, {"measurement": "Vmax", "value": 2.9, "unit": "µmol/min/mg"}, {"measurement": "kcat", "value": "3.37 ± 0.135", "unit": "s⁻¹"}, {"measurement": "kcat/Km", "value": "32300 ± 2320", "unit": "M⁻¹ s⁻¹"}]}
